Results taken from publication PMC12528385 (Nature Communications, 2025).

Target: human insulin receptor, B isoform (exon 11+), wild type (human, UniProt P06213)
Assay: flow cytometry on cells

| Binder | binding result |
| --- | --- |
| monoclonal antibody 83-14 against the human insulin receptor (antibody, V domains shown) VH: QVQLQQSGPELVKPGALVKISCKASGYTFTNYDIHWVKQRPGQGLEWIGWIYPGDGSTKYNEKFKGKATLTADKSSSTAYMHLSSLTSEKSAVYFCAREWAYWGQGTLVTVSA VL: DIQMTQSPSSLSASLGERVSLTCRASQDIGGNLYWLQQGPDGTIKRLIYATSSLDSGVPKRFSGSRSGSDYSLTISSLESEDFVDYYCLQYSSSPWTFGGGTKLEIK | binds |
| monoclonal antibody 83-7 against the human insulin receptor (antibody, V domains shown) VH: QVQLKESGPGLVAPSQSLSITCTVSGFPLTAYGVNWVRQPPGKGLEWLGMIWGDGNTDYNSALKSRLSISKDNSKSQVFLKMNSLQTDDTARYYCARDPYGSKPMDYWGQGTSVTVSS VL: DIVMSQSPSSLVVSVGEKVTMSCKSSQSLLYSSNQKNFLAWYQQKPGQSPKLLIYWASTRESGVPDRFTGSGSGTDFTLTISSVKAEDLAVYYCQQYFRYRTFGGGTKLEIK | binds |
